Here are results for 26 molecules from patent US20110086806A1 (published 2011).

Changes are numbered by the printed parent chain. Names may count otherwise.

The chains are these.
T1: recombinant human IL-23R/Fc chimera (R&D Systems) (human, UniProt Q5VWK5 24-355)
T1 construct: Bought; also called rhIL23RFc
T1 sequence (looked up): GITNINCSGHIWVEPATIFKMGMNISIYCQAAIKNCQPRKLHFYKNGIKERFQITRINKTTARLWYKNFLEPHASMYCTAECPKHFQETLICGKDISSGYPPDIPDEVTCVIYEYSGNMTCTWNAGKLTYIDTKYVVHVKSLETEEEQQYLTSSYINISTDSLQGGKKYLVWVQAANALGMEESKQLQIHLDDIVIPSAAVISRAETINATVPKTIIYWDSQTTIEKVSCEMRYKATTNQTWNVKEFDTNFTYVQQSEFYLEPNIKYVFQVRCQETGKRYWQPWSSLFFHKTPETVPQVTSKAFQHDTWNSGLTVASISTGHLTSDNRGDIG

B1: 001-69.4D4 monomeric CTLD (designed binder)
chain: ALQTVCLKGTKVHMKCFLAFTQTKTFHEASEDCISRGGTLSTPQTGSENDALYEYLRQSVGNEAEIWLGLNGSVRGRTWVDMTGARIAYKNWETEITAQPDGGIGVWGENCAVLSGAANGKWFDKRCRDQLPYICQFGIV
notes: C-terminal tag not specified
B2: 001-89.C7F monomeric CTLD (designed binder)
chain: B1 chain with V74L, R75L, G76T, R77G, T78L, I104Y, V106A
B3: 001-87.A4A monomeric CTLD (designed binder)
chain: ALQTVCLKGTKVHMKCFLAFTQTKTFHEASEDCISRGGTLSTPQTGSENDALYEYLRQSVGNEAEIWLGLNWTLAKNLWVDMTGARIAYKNWETEITAQPDGGLFGRGENCAVLSGAANGKWFDKRCRDQLPYICQFGIV
notes: C-terminal tag not specified
B4: 001-87.A9E monomeric CTLD (designed binder)
chain: B1 chain with V74A, R75L, G76T, R77N, I104L, V106Y
notes: C-terminal tag not specified
B5: 001-69.3C2 monomeric CTLD (designed binder)
chain: B1 chain with G72T, S73N, R75T, G76R, R77T, T78L, I104L
notes: C-terminal tag not specified
B6: 001-87.A8E monomeric CTLD (designed binder)
chain: B1 chain with G72A, S73N, V74P, R75A, G76Q, R77D, T78L, I104F
notes: C-terminal tag not specified
B7: 001-87.A5F monomeric CTLD (designed binder, not shown: small tags and cut ends)
chain: B1 chain with G76S, R77A, I104F, V106Y, W107F
notes: C-terminal tag not specified
B8: 001-69.4E5 monomeric CTLD (designed binder)
chain: B1 chain with S73N, V74P, R75S, R77S, T78V, I104Y
notes: C-terminal tag not specified; not shown: Also the vector's N-terminal AGGGS after the pelB signal
B9: 001-89.C12E monomeric CTLD (designed binder)
chain: B3 chain with L74K, A75R, K76T, N77A, L104M, R107M
notes: C-terminal tag not specified
B10: 001-69.4F5 monomeric CTLD (designed binder)
chain: ALQTVCLKGTKVHMKCFLAFTQTKTFHEASEDCISRGGTLSTPQTGSENDALYEYLRQSVGNEAEIWLGLNVLGWRREWVDMTGARIAYKNWETEITAQPDGGLVMPMENCAVLSGAANGKWFDKRCRDQLPYICQFGIV
notes: as for B8
B11: 001-89.C3C monomeric CTLD (designed binder)
chain: B1 chain with G72A, S73N, V74R, G76R, R77T, T78M, I104M
notes: C-terminal tag not specified
B12: 001-69.4G8 monomeric CTLD (designed binder)
chain: B1 chain with V74R, G76S, R77G, T78V, I104F, W107F
notes: C-terminal tag not specified; not shown: C-terminal tag: 6xHis (pANA1), HA-His (pANA3) or HA-StrepII (pANA12)
B13: 001-69.4G8 ATRIMER complex, mammalian-cell produced (designed binder, not shown: small tags and cut ends)
chain: EPPTQKPKKIVNAKKDVVNTKMFEELKSRLDTLAQEVALLKEQQALQTVCLKGTKVHMKCFLAFTQTKTFHEASEDCISRGGTLSTPQTGSENDALYEYLRQSVGNEAEIWLGLNGSRRSGVWVDMTGARIAYKNWETEITAQPDGGFGVFGENCAVLSGAANGKWFDKRCRDQLPYICQFGIV
modifications: Homotrimer of this chain (ATRIMER complex); produced in HEK293 cells, glycosylation possible.
notes: Mammalian-cell produced material; also called 4G8 m; 4G8 TN m
B14: 001-89.C3C ATRIMER complex (designed binder)
chain: B13 chain with G116A, S117N, S120R, G121T, V122M, F148M, F151W
notes: not shown: C-terminal tag: His/Myc (pANA4) or HA-StrepII (pANA10)
B15: 056-41.B9B ATRIMER complex (designed binder)
chain: B13 chain with G116A, S117P, R118P, R119D, S120L, V122L, F148W, F151W
notes: as for B14
B16: 001-87.A5F ATRIMER complex (designed binder)
chain: B13 chain with R118V, G121A, V122T, V150Y
modifications: Homotrimer of this chain (ATRIMER complex).
notes: also called Atrimer A5F; not shown: A possible extra N-terminal Ser from the ompA junction is left out
B17: 001-87.A4A ATRIMER complex (designed binder)
chain: EPPTQKPKKIVNAKKDVVNTKMFEELKSRLDTLAQEVALLKEQQALQTVCLKGTKVHMKCFLAFTQTKTFHEASEDCISRGGTLSTPQTGSENDALYEYLRQSVGNEAEIWLGLNWTLAKNLWVDMTGARIAYKNWETEITAQPDGGLFGRGENCAVLSGAANGKWFDKRCRDQLPYICQFGIV
notes: as for B14
B18: 056-41.B12F ATRIMER complex (designed binder)
chain: B13 chain with R118V, G121A, V122T, F148Y
modifications: Homotrimer of this chain (ATRIMER complex).
notes: not shown: A possible extra N-terminal Ser from the ompA junction is left out
B19: 105-08-1A7 ATRIMER complex (designed binder)
chain: B13 chain with R118V, S120T, G121N, V122T, V150Y
modifications: ATRIMER complex: homotrimer of three copies of this chain, joined by the tetranectin coiled coil
notes: not shown: C-terminal tag: Myc/His (pANA4) or HA-StrepII (pANA10)
B20: 105-08-1C2 ATRIMER complex (designed binder)
chain: B13 chain with R119A, S120T, G121D, V122T, V150Y
B21: 105-08-1B7 ATRIMER complex (designed binder)
chain: B13 chain with R118P, S120T, G121D, V122T, V150Y
B22: 105-08-1C3 ATRIMER complex (designed binder)
chain: B13 chain with R118Q, R119L, S120T, G121D, V122T, F148W, V150Y
B23: 105-08-1B1 ATRIMER complex (designed binder)
chain: B13 chain with R118P, S120T, G121Q, V122T, V150Y
modifications: ATRIMER complex: homotrimer of three copies of this chain, joined by the tetranectin coiled coil
notes: as for B19
B24: 105-08-1A10 ATRIMER complex (designed binder)
chain: B13 chain with R118S, R119I, S120T, G121D, V122T, F148W, V150Y
notes: as for B14
B25: 105-08-1B10 ATRIMER complex (designed binder)
chain: B13 chain with R119H, S120T, G121D, V122T, V150Y
notes: as for B14
B26: 105-08-1C4 ATRIMER complex (designed binder, not shown: small tags and cut ends)
chain: B13 chain with R118T, R119L, S120T, G121D, V122T, F148W, V150Y

One assay addresses T1, recombinant human IL-23R/Fc chimera …. The assay is described as follows: SPR. How it is done:
A Biacore 3000 biosensor (GE Healthcare) was used to evaluate the interaction of human IL-23R and receptor binders. Immobilization of an anti-human IgG Fc antibody (GE Healthcare) to the CM5 chip (GE Healthcare) was performed using standard amine coupling chemistry, and this modified surface was used to capture a recombinant human IL-23R/Fc fusion protein (R&D Systems). A low-density receptor surface, less than 200 RU, was used for all of the analyses. ATRIMER™ polypeptide complex dilutions (1-500 nM) were injected over the IL-23R surface at 30 μl/min and kinetic constants were derived from the sensorgram data using the Biaevaluation software (version 3.1, GE Healthcare). Data collection was 3 minutes for the association and 5 minutes for dissociation. The anti-human IgG surface was regenerated with a 30s pulse of 3M magnesium chloride. All sensorgrams were double-referenced against an activated and blocked flow-cell as well as buffer injections.
For orientation: SPR reads the build-up and loss of mass on a sensor chip optically.
What is called Kd is the constant that tells how readily two partners part at equilibrium. For orientation: koff means the rate constant with which the complex falls apart. One may read the kon as a measure of how fast the partners come together. B1: the Ka was determined as 6.76e+06 M⁻¹, the Kd worked out at 148 nM, the koff was determined as 0.00419 s⁻¹ and the kon stood at 28300 M⁻¹ s⁻¹.

Consider B2, for which the Ka was found to be 6.75e+06 M⁻¹, the Kd stood at 148 nM, the koff came to 0.00531 s⁻¹ and the kon is 35800 M⁻¹ s⁻¹.

For the molecule B3, the Ka came out at 5.18e+06 M⁻¹, the Kd is 193 nM, the koff amounted to 0.0229 s⁻¹ and the on-rate (kon) is 118000 M⁻¹ s⁻¹.

In the case of B4, the Ka was determined as 9.29e+06 M⁻¹, the Kd was found to be 108 nM, the koff was 0.0041 s⁻¹ and the kon worked out at 38100 M⁻¹ s⁻¹.

For the molecule B5, the Ka came to 5.39e+06 M⁻¹, the Kd turned out to be 186 nM, the koff amounted to 0.00741 s⁻¹ and the kon worked out at 39900 M⁻¹ s⁻¹.

On to B6, for which the Ka is 7.09e+06 M⁻¹, the dissociation constant Kd stood at 141 nM, the koff was 0.00757 s⁻¹ and the kon turned out to be 53700 M⁻¹ s⁻¹.

With B7, the Ka came to 4.11e+07 M⁻¹, the Kd was determined as 24.3 nM, the koff was found to be 0.00415 s⁻¹ and the kon came to 170000 M⁻¹ s⁻¹.

B8: the Ka turned out to be 2.82e+06 M⁻¹, the Kd came to 355 nM, the off-rate (koff) turned out to be 0.0161 s⁻¹ and the kon was 45400 M⁻¹ s⁻¹.

B9: the Ka is 5.62e+06 M⁻¹, the Kd turned out to be 178 nM, the off-rate constant (koff) amounted to 0.0074 s⁻¹ and the kon worked out at 41600 M⁻¹ s⁻¹.

On to B10, for which the Ka was 4.12e+06 M⁻¹, the Kd came to 243 nM, the koff came out at 0.00571 s⁻¹ and the kon amounted to 23500 M⁻¹ s⁻¹.

For the molecule B11, the Ka was found to be 5.34e+06 M⁻¹, the Kd was 187 nM, the koff was 0.0158 s⁻¹ and the kon was found to be 84500 M⁻¹ s⁻¹.

Consider B12, for which the Ka worked out at 1.83e+07 M⁻¹, the equilibrium dissociation constant (Kd) is 54 nM, the koff was found to be 0.00783 s⁻¹ and the kon came out at 143000 M⁻¹ s⁻¹.

B13: the Ka worked out at 2.1e+08 M⁻¹, the Kd was 4.76 nM, the koff came out at 0.000751 s⁻¹ and the kon turned out to be 158000 M⁻¹ s⁻¹.

Consider B14, for which the Ka turned out to be 1.2e+08 M⁻¹, the Kd was found to be 8.34 nM, the koff amounted to 0.000483 s⁻¹ and the kon is 57900 M⁻¹ s⁻¹.

With B15, the Ka worked out at 1.94e+08 M⁻¹, the Kd was 5.15 nM, the koff turned out to be 0.000478 s⁻¹ and the on-rate constant (kon) turned out to be 92800 M⁻¹ s⁻¹.

As to B16, the Ka stood at 2.19e+08 M⁻¹, the equilibrium dissociation constant (Kd) was determined as 4.57 nM, the koff amounted to 0.0007 s⁻¹ and the on-rate (kon) worked out at 153000 M⁻¹ s⁻¹.

For B17, the Ka was found to be 1.24e+08 M⁻¹, the Kd worked out at 8.08 nM, the koff came to 0.000409 s⁻¹ and the on-rate (kon) is 50600 M⁻¹ s⁻¹.

With B18, the Ka is 4.47e+08 M⁻¹, the Kd was 2.24 nM, the koff was 0.000545 s⁻¹ and the kon was determined as 244000 M⁻¹ s⁻¹.

The next assay has the same target. Kind of assay: competition ELISA vs IL-23. The procedure:
Assays were performed generally as follows. Individual wells in Immulon HB2 plates were incubated overnight at 4° C. with 100 μL PBS containing 100 ng of an anti-human IgG Fc (R&D MAB 110 clone 97924). Plates were washed five times with PBS/0.05% Tween 20, and wells were incubated for 1.5 h at RT with 100 μL each of PBS containing 50 ng of recombinant human IL-23R/Fc. […] Competitor was included at a final concentration of 1 μg/mL. After incubation, plates were washed as described and wells were incubated for 40 min at RT with 100 μL each of PBS containing a 1:5000 dilution of streptavidin-HRP conjugate (Pierce catalog no. 21130). After washing, wells were incubated with 100 μL each of TMB (BioFX Lab catalog no. TMBH-1000-0) for up to 30 min at RT. Reactions were stopped with an equal volume of 0.2 M sulfuric acid.
For orientation: An ELISA detects its analyte on a solid surface through an enzyme-linked reagent.
With B19, the “Ratio IC50 to 056-53.H4E IC50” value came to 2.9.

Consider B20, for which the “Ratio IC50 to 056-53.H4E IC50” value stood at 4.1.

For the molecule B21, the “Ratio IC50 to 056-53.H4E IC50” value is 4.1.

B22: the “Ratio IC50 to 056-53.H4E IC50” value is 3.6.

B23: the “Ratio IC50 to 056-53.H4E IC50” value turned out to be 3.3.

Take B24: the “Ratio IC50 to 056-53.H4E IC50” value came out at 4.3.

With B25, the “Ratio IC50 to 056-53.H4E IC50” value was determined as 4.7.

Regarding B26, the “Ratio IC50 to 056-53.H4E IC50” value was found to be 3.3.
